Our source for the abundance fitness values is the Human Domainome abundance scans (Beltran et al. 2025).

B1: Steroid hormone receptor ERR2, residues 100 to 176; numbered along this chain, O95718 (parent)
chain: KRLCLVCGDIASGYHYGVASCEACKAFFKRTIQGNIEYSCPATNECEITKRRRKSCQACRFMKCLKVGMLKEGVRLD

± gives the uncertainty stated by the source.

The series covers variants of B1. The series is described as follows: abundance fitness (aPCA) (normalised: wild type 0, dead -1); higher = more abundant; growth selection in yeast, the domain comes from the species named. To be noted: Homo sapiens.
As to T31I, the abundance fitness was -0.295 ± 0.12. The same measure for T31L: -0.83 ± 0.083; for T31R: -0.678 ± 0.06; for T31V: -0.223 ± 0.048. With Q57C, the abundance fitness was -0.152 ± 0.067. For Q57I, the abundance fitness was -0.633 ± 0.15. For Q57H, the abundance fitness was -0.347 ± 0.1. Turning to Q57M, the abundance fitness is -0.221 ± 0.063. As for T43Q, the abundance fitness was -0.175 ± 0.068. The same measure for T43V: -0.012 ± 0.044; for T43N: -0.085 ± 0.083; for T43S: -0.237 ± 0.051.

On to T43P, for which the abundance fitness is -0.393 ± 0.086.

For T43W, the abundance fitness was -0.021 ± 0.046. Regarding T43M, the abundance fitness came to 0.03 ± 0.061. K50Y: the abundance fitness was -0.128 ± 0.084.

As to K50I, the abundance fitness stood at 0.112 ± 0.065. Turning to K50T, the abundance fitness turned out to be 0.019 ± 0.059. Consider Y38R, for which the abundance fitness was -0.347 ± 0.049. Take Y38M: the abundance fitness is -0.548 ± 0.11.

On to I48R, for which the abundance fitness is -0.518 ± 0.093. With I48P, the abundance fitness is -0.242 ± 0.11.

Turning to I48F, the abundance fitness is -0.298 ± 0.093. Regarding I48A, the abundance fitness was -0.157 ± 0.079. As to G73D, the abundance fitness was found to be 0.133 ± 0.079. With G73L, the abundance fitness was -0.016 ± 0.046. Take G73H: the abundance fitness was -0.104 ± 0.12. Take R51K: the abundance fitness is -0.002 ± 0.1. Turning to R51I, the abundance fitness was -0.269 ± 0.11. As for R51W, the abundance fitness stood at 0.022 ± 0.14. For the variant L5Y, the abundance fitness was -0.186 ± 0.12. Under L5I stands -0.333 ± 0.12.

As to L5S, the abundance fitness was -0.233 ± 0.058. As for L5Q, the abundance fitness is -0.094 ± 0.061. Regarding L5P, the abundance fitness is -0.358 ± 0.085. Take C24T: the abundance fitness was -1 ± 0.15.

As to C24N, the abundance fitness was -0.939 ± 0.3. Under C24R stands -0.744 ± 0.061. The same measure for F28C: -0.843 ± 0.16; for F28G: -0.687 ± 0.055. The same measure for F28L: -0.413 ± 0.051. As for L70R, the abundance fitness is 0.014 ± 0.043. L70A: the abundance fitness is -0.004 ± 0.056. As for L70G, the abundance fitness was -0.084 ± 0.042. In the case of R52V, the abundance fitness is -0.003 ± 0.057.

As for R52N, the abundance fitness is -0.156 ± 0.15. As for R52M, the abundance fitness was -0.084 ± 0.085.

For R52E, the abundance fitness turned out to be 0.136 ± 0.051.

On to R52T, for which the abundance fitness was found to be 0.039 ± 0.069. As to K29F, the abundance fitness is -0.132 ± 0.087. K29H: the abundance fitness was -0.067 ± 0.1.

Turning to K29D, the abundance fitness was -0.014 ± 0.072. Under K29R stands 0.085 ± 0.039; under K29T, 0.215 ± 0.049.

For the variant E47L, the abundance fitness was -0.103 ± 0.061.

On to E47C, for which the abundance fitness was -0.172 ± 0.11.

Consider E47S, for which the abundance fitness is -0.229 ± 0.064. E47K: the abundance fitness was -0.155 ± 0.091. As to Y16Q, the abundance fitness is -0.366 ± 0.078. Take Y16S: the abundance fitness is -0.276 ± 0.05. Consider Y16G, for which the abundance fitness was -0.08 ± 0.045. As for Y16H, the abundance fitness was -0.378 ± 0.14. In the case of Y16C, the abundance fitness is -0.213 ± 0.077. Under Y16V stands -0.115 ± 0.041; under Y16I, -0.342 ± 0.087. The same measure for A19D: 0.046 ± 0.067; for A19Y: -0.223 ± 0.092.

As for A19K, the abundance fitness was -0.135 ± 0.055. With A19L, the abundance fitness is -0.046 ± 0.041.

Regarding G8S, the abundance fitness was -0.117 ± 0.052.

As for G8A, the abundance fitness was -0.101 ± 0.055. The same measure for G8Q: 0.086 ± 0.058; for G8I: -0.636 ± 0.3; for G8F: -0.274 ± 0.15. A11S: the abundance fitness was 0.067 ± 0.051.

On to A11F, for which the abundance fitness is -0.213 ± 0.1. Take A11E: the abundance fitness was -0.11 ± 0.063.

A11L: the abundance fitness is -0.311 ± 0.063.

Turning to A11P, the abundance fitness is -0.542 ± 0.14. For A11M, the abundance fitness is -0.103 ± 0.064. Consider A58G, for which the abundance fitness was -0.205 ± 0.043. A58H: the abundance fitness is -0.445 ± 0.13.

Turning to R53S, the abundance fitness is -0.114 ± 0.058. Under R53K stands 0.015 ± 0.078. For the variant R53Q, the abundance fitness stood at 0.096 ± 0.066. For R53A, the abundance fitness worked out at 0.005 ± 0.051. Under R53L stands 0.074 ± 0.057. On to R53M, for which the abundance fitness turned out to be 0.107 ± 0.082. In the case of R53D, the abundance fitness was 0.026 ± 0.093. As to I32K, the abundance fitness is -0.337 ± 0.08. Under I32T stands -0.222 ± 0.067; under S20L, -0.185 ± 0.048. Under S20T stands 0.346 ± 0.047. S20C: the abundance fitness was found to be 0.414 ± 0.047. The same measure for S20K: -0.218 ± 0.059; for S20R: -0.381 ± 0.048. As to M69A, the abundance fitness is -0.639 ± 0.094. Regarding M69G, the abundance fitness was -0.703 ± 0.075.

Turning to M69F, the abundance fitness was found to be 0.058 ± 0.083.

As to M69V, the abundance fitness was -0.749 ± 0.095. The same measure for L3W: -0.446 ± 0.066. For the variant L3Q, the abundance fitness is -0.055 ± 0.062. For L3V, the abundance fitness is -0.036 ± 0.047.

Regarding L3P, the abundance fitness is -0.372 ± 0.083.

On to L3Y, for which the abundance fitness worked out at 0.219 ± 0.085. Regarding K54V, the abundance fitness turned out to be 0.007 ± 0.045. The same measure for K54E: 0.129 ± 0.055. The same measure for K54L: 0.005 ± 0.049. With K54D, the abundance fitness came out at 0.092 ± 0.077. Take K54A: the abundance fitness came to 0.009 ± 0.055.

K54H: the abundance fitness is 0.144 ± 0.11. Under K54I stands 0.073 ± 0.093; under L76M, -0.001 ± 0.067; under L76Q, -0.007 ± 0.061. Consider L76V, for which the abundance fitness is 0.058 ± 0.045. As for L76P, the abundance fitness is -0.079 ± 0.08. In the case of A23P, the abundance fitness was 0.023 ± 0.063. Under A23R stands 0.166 ± 0.037; under A23V, -0.014 ± 0.046; under C40R, -0.734 ± 0.074. With C40P, the abundance fitness is -0.684 ± 0.13. With C40G, the abundance fitness was -0.711 ± 0.068.

Consider C40M, for which the abundance fitness is -0.742 ± 0.13. For the variant C40I, the abundance fitness was -0.443 ± 0.17. As for G68D, the abundance fitness was -0.267 ± 0.11.

Turning to G68T, the abundance fitness was -0.849 ± 0.2.

With G68S, the abundance fitness is -0.954 ± 0.14. Under G68C stands -0.808 ± 0.18; under G68R, -0.903 ± 0.098.

For M62H, the abundance fitness is -0.496 ± 0.16. Consider M62K, for which the abundance fitness is 0.141 ± 0.052.

On to M62L, for which the abundance fitness is -0.135 ± 0.048.

Regarding K25F, the abundance fitness came out at 0.194 ± 0.063.

On to K25T, for which the abundance fitness was found to be 0.146 ± 0.046.

As for K25E, the abundance fitness worked out at 0.41 ± 0.037. Consider K25R, for which the abundance fitness stood at 0.208 ± 0.031. K25L: the abundance fitness worked out at 0.224 ± 0.033. For K25I, the abundance fitness is 0.091 ± 0.063. With C46I, the abundance fitness was -1.06 ± 0.43. In the case of C46Y, the abundance fitness is -0.59 ± 0.23. Turning to C46M, the abundance fitness was -0.557 ± 0.12. C46Q: the abundance fitness is -0.834 ± 0.17. On to C46V, for which the abundance fitness is -0.615 ± 0.084. As to I36M, the abundance fitness is -0.074 ± 0.056. I36F: the abundance fitness was -0.095 ± 0.11. On to R2E, for which the abundance fitness is -0.105 ± 0.071.

R2G: the abundance fitness was -0.176 ± 0.058. As to R2K, the abundance fitness was -0.066 ± 0.074. For R2C, the abundance fitness is -0.111 ± 0.11. Under R2Q stands -0.367 ± 0.096; under C56S, -0.847 ± 0.12; under C56N, -0.845 ± 0.25. Take C56Y: the abundance fitness is -0.884 ± 0.24. Consider C56H, for which the abundance fitness was -0.599 ± 0.19. The same measure for S55M: 0.374 ± 0.062; for S55R: 0.22 ± 0.041. The same measure for S55W: 0.263 ± 0.051; for S55K: 0.149 ± 0.057. For S55N, the abundance fitness worked out at 0.405 ± 0.085. The same measure for S55A: 0.278 ± 0.044; for S55Y: 0.206 ± 0.079. On to S55H, for which the abundance fitness was found to be 0.351 ± 0.094.

In the case of L65H, the abundance fitness was -0.797 ± 0.35. Under L65I stands -0.289 ± 0.11; under L65K, -0.466 ± 0.085. Take L65N: the abundance fitness was -0.813 ± 0.31. As for L65Y, the abundance fitness is -0.456 ± 0.17.
